Consider 15 molecules from US20110237779A1.

Substitutions are numbered along the chain they refer to. Names may count otherwise.

B1: MHM24 direct hypervariable region graft on the acceptor human consensus framework (Fab displayed on phage) (Fab, V domains shown)
VH: EVQLVESGGGLVQPGGSLRLSCAASGYSFTGHWMNWVRQAPGKGLEWVGMIHPSDSETRLNQKFKDRFTISADTSKNTAYLQMNSLRAEDTAVYYCARGIYFYGTTYFDYWGQGTLVTVSS
VL: DIQMTQSPSSLSASVGDRVTITCRASKTISKYLAWYQQKPGKAPKLLIYSGSTLQSGVPSRFSGSGSGTDFTLTISSLQPEDFATYYCQQHNEYPLTFGQGTKVEIK
B2: MHM24 library clone, CDR-L2 SGSTLES (Fab, V domains shown)
VH: B1 VH
VL: B1 VL with Q55E
B3: MHM24 library clone, CDR-L2 NARSLQS (Fab, V domains shown)
VH: B1 VH
VL: B1 VL with S50N, G51A, S52R, T53S
B4: MHM24 library clone, CDR-L2 SGSIFQY, VH Y100dT (Fab, part only; not given: CH1, light constant and phage P3, part only)
light chain: DIQMTQSPSSLSASVGDRVTITCRASKTISKYLAWYQQKPGKAPKLLIYSGSIFQYGVPSRFSGSGSGTDFTLTISSLQPEDFATYYCQQHNEYPLTFGQGTKVEIKR
heavy chain (VH-CH1 fused to phage P3), part: B1 VH
B5: MHM24 library clone, CDR-L2 SGRTLWP (Fab, V domains shown)
VH: B1 VH
VL: B1 VL with S52R, Q55W, S56P
B6: MHM24 library clone, CDR-L2 SGRAMQR (Fab, V domains shown)
VH: B1 VH
VL: B1 VL with S52R, T53A, L54M, S56R
B7: MHM24 library clone, CDR-L2 SGSTLES, VH D101E (Fab, V domains shown)
VH: B1 VH with D109E
VL: B1 VL with Q55E
B8: MHM24 library clone, CDR-L2 SGRSLQR, VH L45P (Fab, V domains shown)
VH: B1 VH with L45P
VL: B1 VL with S52R, T53S, S56R
B9: MHM24 library clone, CDR-L2 SGRSLQS, VH S28R (Fab, V domains shown)
VH: B1 VH with S28R
VL: B1 VL with S52R, T53S
B10: MHM24 library clone, CDR-L2 TGSTLES, VL S26T (Fab, V domains shown)
VH: B1 VH
VL: B1 VL with S26T, S50T, Q55E
B11: MHM24 library clone, CDR-L2 SGGTLHR (Fab, V domains shown)
VH: B1 VH
VL: B1 VL with S52G, Q55H, S56R
B12: MHM24 library clone, CDR-L2 SGYSLHR, VL K27E, L96V (Fab, V domains shown)
VH: B1 VH
VL: B1 VL with K27E, S52Y, T53S, Q55H, S56R, L96V
B13: MHM24 library clone, CDR-L2 SGRALQS (Fab, V domains shown)
VH: B1 VH
VL: B1 VL with S52R, T53A
B14: MHM24 library clone, CDR-L2 SGSTLES, VH S55I (Fab, V domains shown)
VH: B1 VH with S56I
VL: B1 VL with Q55E
B15: MHM24 library clone, CDR-L2 SGSALQS (Fab, V domains shown)
VH: B1 VH
VL: B1 VL with T53A

In the first test the target is human LFA-1 (human) (UniProt P20701). Kind of test: phage ELISA, Fab on phage, competition with antigen in solution.
Take B1: the IC50 worked out at 6 nM.

A further test has the same target. As to the kind of experiment: phage ELISA, Fab on phage, competition with antigen in solution; IC50 used as affinity estimate.
As for B1, the IC50 is 4 nM.

For a further test the target is unchanged. Kind of test: phage ELISA, solution competition: Fab-phage incubated with serially diluted LFA-1, unbound phage captured on LFA-1-coated wells; IC50 used as affinity estimate.
As for B2, the IC50 was 9 nM.

For the molecule B3, the IC50 is 32 nM.

Consider B4, for which the IC50 is 11 nM.

Regarding B5, the IC50 is 17 nM.

In the case of B6, the IC50 was 11 nM.

Consider B1, for which the IC50 was 6 nM.

In the case of B7, the IC50 is 8 nM.

With B8, the IC50 is 27 nM.

For the molecule B9, the IC50 was 17 nM.

On to B10, for which the IC50 is 4 nM.

As to B11, the IC50 is 6 nM.

For B12, the IC50 was 41 nM.

Take B13: the IC50 was 9 nM.

As for B14, the IC50 was 4 nM.

As for B15, the IC50 is 8 nM.
